Molecular target: Tocilizumab (IgG1)
Test: SPR (Biacore), tocilizumab immobilised via EDC/NHS on CM5 chip, receptor as analyte

Row | Kd [nM] | Substance
1 | 0.478 | Man9 (Pichia-produced FcγRIIIa domain 2 ligand with Mannose 9 glycosylation) (receptor)
2 | 17.6 | Deglycosylated D2 (Man9 deglycosylated using EndoH) (receptor)
